Laboratory results published in patent US9358302.

Experiments:
Test in all cases: cell-based or functional assay
[1] = biological target: OVA peptide 323-339 (OVAp)
[2] = biological target: GBSIII-OVAp (GBSIII conjugated to N-acetylated, C-terminally extended OVA323-339)
[3] = biological target: scrambled OVA peptide, scOVAp

Substance: T-cell receptor of DO11.10 transgenic mice that recognizes OVA peptide 323-339 in the context of MHC class II (I-A^d) (TCR)
- T cell proliferation, [3H]thymidine incorporation, 2.5 µg OVAp [1]: 285000 cpm
- T cell proliferation, stimulation index (SI), 0.013 µg OVAp [1]: 35 SI
- T cell proliferation, stimulation index (SI), 0.13 µg OVAp [1]: 781 SI
- T cell proliferation, stimulation index (SI), 1.3 µg OVAp [1]: 2940 SI
- T cell proliferation, [3H]thymidine incorporation, 10 µg GBSIII-OVAp [2]: 12700 cpm
- fold lower T cell proliferation against the same amount of OVAp [2]: 23 fold
- T cell proliferation, [3H]thymidine incorporation [3]: < 500 cpm
